According to patent US5846743A, “Polyphoshoinositide binding peptides for intracellular drug delivery” (Brigham and Women's Hospital, Inc., priority 1996, dated 1998):
Where a SMILES comes first, the peptide text is derived from it. The star is where a group is joined. RhodamineB = CCN(CC)c1ccc2c(-c3ccccc3C(=O)*)c3ccc(=[N+](CC)CC)cc-3oc2c1

Test system: cells exposed to conjugate in culture medium, regardless of the cell type

CCN(CC)c1ccc2c(-c3ccccc3C(=O)N[C@@H](CCC(N)=O)C(=O)N[C@@H](CCCNC(=N)N)C(=O)N[C@@H](CC(C)C)C(=O)N[C@@H](Cc3ccccc3)C(=O)N[C@@H](CCC(N)=O)C(=O)N[C@H](C(=O)N[C@@H](CCCCN)C(=O)NCC(=O)N[C@@H](CCCNC(=N)N)C(=O)N[C@@H](CCCNC(=N)N)C(=O)O)C(C)C)c3ccc(=[N+](CC)CC)cc-3oc2c1 [rhodamine-Sequence I.D. No. 2] (RhodamineB-QRLFQVKGRR-OH)
intracellular free calcium increase caused by conjugate: did not result in uptake of free fluorescein or induce a large increase in intracellular free calcium
